For series [1], the target named is A3G (Homo sapiens?) (UniProt Q9HC16). The series is described as follows: fluorescence anisotropy. The following applies: RT buffer: 50 mM Tris pH 7.4, 40 mM KCl, 10 mM MgCl2, 1 mM DTT; 10 nM F-labeled DNA; 21 C.
The target of series [2] is A3G NPM ins194_195NPM (UniProt Q9HC16). Description: fluorescence anisotropy. The following applies: RT buffer: 50 mM Tris pH 7.4, 40 mM KCl, 10 mM MgCl2, 1 mM DTT; 10 nM F-labeled DNA; 21 C. On the technique in general: Polarisation of emitted light reports the rotation of a fluorescent probe.

These results are taken from article PMC3961392.

As a reminder, the Kd is the concentration at which binding is half-saturated.

Sequence of A3G (Homo sapiens?) (Q9HC16 whole entry): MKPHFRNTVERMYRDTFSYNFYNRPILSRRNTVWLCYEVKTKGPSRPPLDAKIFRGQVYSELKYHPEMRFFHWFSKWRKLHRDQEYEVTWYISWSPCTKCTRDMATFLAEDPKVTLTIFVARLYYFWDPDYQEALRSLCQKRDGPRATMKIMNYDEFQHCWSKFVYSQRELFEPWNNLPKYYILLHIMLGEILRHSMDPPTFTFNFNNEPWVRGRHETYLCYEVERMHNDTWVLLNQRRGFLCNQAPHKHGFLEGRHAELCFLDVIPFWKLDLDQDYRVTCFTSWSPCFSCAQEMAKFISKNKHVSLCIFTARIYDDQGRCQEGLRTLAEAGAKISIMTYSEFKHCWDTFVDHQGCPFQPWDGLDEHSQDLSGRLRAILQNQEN
Sequence of A3G NPM ins194_195NPM (Q9HC16 whole entry): as above

In the case of “GAATATATGTTGAGACCCAAAGTAATGAGAGATTGATTAGATGAGTGTAATGTGATATATGTGTATGAAAGATATAAGACCCAAAGAGTAAAGTTGTTAATGTGTGTAGATATGTTAA [A3G - 63 (118 nt, CCC)]”, the Kd in series [1] was 130 nM; in series [2] it was 56 nM.
